According to patent US20240269235A1 (Gilead, published 2024):
Where a chain is given by its changes, count along the chain named.

T1: trimeric murine IL-2 receptor (IL-2Rα, IL-2Rβ, and IL-2Rγ) on CTLL-2 cells (murine, UniProt P01590 22-268; P16297 27-539; P34902 23-369)
T1 sequence (looked up) 1: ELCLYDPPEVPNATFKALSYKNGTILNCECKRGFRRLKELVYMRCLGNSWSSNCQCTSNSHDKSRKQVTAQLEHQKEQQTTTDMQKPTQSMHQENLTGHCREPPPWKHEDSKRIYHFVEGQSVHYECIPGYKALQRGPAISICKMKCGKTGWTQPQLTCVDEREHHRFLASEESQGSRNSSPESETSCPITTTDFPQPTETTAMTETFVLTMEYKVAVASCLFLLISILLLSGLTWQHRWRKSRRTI
T1 sequence (looked up) 2: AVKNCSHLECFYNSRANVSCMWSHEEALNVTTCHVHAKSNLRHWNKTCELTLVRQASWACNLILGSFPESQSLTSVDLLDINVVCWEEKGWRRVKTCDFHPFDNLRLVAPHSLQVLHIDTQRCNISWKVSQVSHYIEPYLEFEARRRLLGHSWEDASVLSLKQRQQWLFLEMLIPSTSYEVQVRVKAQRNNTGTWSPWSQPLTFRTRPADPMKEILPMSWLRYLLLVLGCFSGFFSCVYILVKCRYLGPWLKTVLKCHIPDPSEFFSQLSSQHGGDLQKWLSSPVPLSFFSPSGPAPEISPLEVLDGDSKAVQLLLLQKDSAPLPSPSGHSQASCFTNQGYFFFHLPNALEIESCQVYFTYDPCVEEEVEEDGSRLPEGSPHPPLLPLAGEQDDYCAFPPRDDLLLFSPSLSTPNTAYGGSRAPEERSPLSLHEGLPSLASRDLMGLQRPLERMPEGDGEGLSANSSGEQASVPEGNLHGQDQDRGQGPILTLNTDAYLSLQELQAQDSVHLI
T1 sequence (looked up) 3: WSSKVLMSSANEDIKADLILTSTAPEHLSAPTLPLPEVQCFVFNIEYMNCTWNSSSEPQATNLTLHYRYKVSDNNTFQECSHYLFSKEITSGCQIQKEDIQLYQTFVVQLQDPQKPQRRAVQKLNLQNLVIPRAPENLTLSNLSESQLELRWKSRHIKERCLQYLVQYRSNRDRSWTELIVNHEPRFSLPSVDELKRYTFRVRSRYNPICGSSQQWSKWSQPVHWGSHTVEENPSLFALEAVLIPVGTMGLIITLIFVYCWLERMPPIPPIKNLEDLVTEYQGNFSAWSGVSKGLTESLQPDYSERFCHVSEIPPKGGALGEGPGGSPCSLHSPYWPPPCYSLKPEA

T2: IL-2Rβ and IL-2Rγ on Ba/F3 cells engineered to express murine IL-2Rβ (murine, UniProt P16297 27-539; P34902 23-369)
T2 sequence (looked up) 1: T1 sequence (looked up) 2
T2 sequence (looked up) 2: T1 sequence (looked up) 3

B1: mouse surrogate Fc-IL-2v heterodimer 166.250 (IL2v_F56A_Y59A_L86G_C140A) (Fc fusion)
chain 1: GPTIKPCPPCKCPAPNAAGGPSVFIFPPKIKDVLMISLSPIVTCVVVDVSEDDPDVQISWFVNNVEVHTAQTQTHREDYNSTLRVVSALPIQHQDWMSGKEFKCKVNNKDLGAPIERTISKPKGSVRAPQVYVLPPPEEEMTKKQVTLWCMVTDFMPEDIYVEWTNNGKTELNYKNTEPVLDSDGSYFMYSKLRVEKKNWVERNSYSCSVVHEGLHNHHTTKSFSRTPGGGGGSGGGGSGGGGSGGGGSQQQHLEQLLMDLQELLSRMENYRNLKLPRMLTAKFALPKQATELKDLQCLEDELGPLRHVLDGTQSKSFQLEDAENFISNIRVTVVKLKGSDNTFECQFDDESATVVDFLRRWIAFAQSIISTSPQ
chain 2: GPTIKPCPPCKCPAPNAAGGPSVFIFPPKIKDVLMISLSPIVTCVVVDVSEDDPDVQISWFVNNVEVHTAQTQTHREDYNSTLRVVSALPIQHQDWMSGKEFKCKVNNKDLGAPIERTISKPKGSVRAPQVYVLPPPEEEMTKKQVTLSCAVTDFMPEDIYVEWTNNGKTELNYKNTEPVLDSDGSYFMVSKLRVEKKNWVERNSYSCSVVHEGLHNHHTTKSFSRTPGK
B2: mouse surrogate Fc-IL-2v heterodimer 171.250 (IL2v_R52G_F56A_E76A_C140A) (Fc fusion)
chain 1: B1 chain 1 with R278G, A285Y, E302A, G312L
chain 2: B1 chain 2
B3: mouse surrogate Fc-IL-2v heterodimer 168.250 (IL2v_F56A_E76A_C140A) (Fc fusion)
chain 1: B1 chain 1 with A285Y, E302A, G312L
chain 2: B1 chain 2
B4: mouse surrogate Fc-IL-2v heterodimer 167.250 (IL2v_F56A_C140A) (Fc fusion)
chain 1: B1 chain 1 with A285Y, G312L
chain 2: B1 chain 2

Molecular target: T1, trimeric murine IL-2 receptor (IL-2Rα, …)
Assay: cell-based or functional assay

pSTAT5 EC50, STAT5 activation of CTLL-2 cells [nM]	Binder
5.4	B1
88.7	B2
63.1	B3
0.12	B4

Molecular target: T2, IL-2Rβ and IL-2Rγ on Ba/F3 cells …
Assay: cell-based or functional assay

Proliferation EC50, Ba/F3 cells [nM]	Binder
9.5	B1
13	B2
20.6	B3
5.2	B4
